Legend:
Assay in all cases: forward yeast two-hybrid, β-galactosidase overlay assay
[1] = molecular target: T1, JNK1 point mutant Tyr-320-His, fused to the B42 activation domain (pJG4-5) (human, UniProt Q91Y86 1-384 (mouse entry))
T1 construct: Full-length JNK1 single point mutant; two-hybrid prey; also called Y320H; Y320→H320

[2] = molecular target: T2, JNK1 point mutant Leu-131-Arg, fused to the B42 activation domain (pJG4-5) (human, UniProt Q91Y86 1-384 (mouse entry))
T2 construct: Full-length JNK1 single point mutant; two-hybrid prey; also called L131R; L131→R131

[3] = molecular target: T3, JNK1 point mutant Arg-309-Trp, fused to the B42 activation domain (pJG4-5) (human, UniProt Q91Y86 1-384 (mouse entry))
T3 construct: Full-length JNK1 single point mutant; two-hybrid prey; also called R309W; R309→W309

Measured: binding result

B1: TI-JIP (Truncated Inhibitor of JNK based on JIP) fused to the LexA DNA-binding domain, from pGILDA-TI-JIP (peptide)
chain: MKALTARQQEVFDLIRDHISQTGMPPTRAEIAQRLGFRSPNAAEEHLKALARKGVIEIVSGASRGIRLLQEEEEGLPLVGRVAAGEPLLAQQHIEGHYQVDPSLFKPNADFLLRVSGMSMKDIGIMDGDLLAVHKTQDVRNGQVVVARIDDEVTVKRLKKQGNKVELLPENSEFKPIVVDLRQQSFTIEGLAVGVIRNGDWLRPKRPTTLNLF
notes: 11-residue peptide expressed in yeast as a C-terminal fusion with LexA (two-hybrid bait); also called bait
no binding: all assays above

— US20080044815A1 (published 2008)
